Source: patent publication US20120058906A1

Columns and labels:
[1] = biological target: rHuman EGF R/Fc Chimera, CF (R&D Systems Cat#344-ER) (human) (UniProt P00533); assay: ECL (MSD multi-spot), Fab 58.1 nM; blank 225
[2] = biological target: rHuman IGF-1 sR (IGF-1 sR), CF (R&D Systems Cat#391-GR) (human) (UniProt P08069); assay: ECL (MSD multi-spot), Fab 58.1 nM; blank 225
[3] = biological target: rHuman P-Cadherin/Fc Chimera, CF (R&D Systems Cat#861-PC) (human) (UniProt P22223); assay: ECL (MSD multi-spot), Fab 58.1 nM; blank 225
[4] = biological target: rHuman EGF R/Fc Chimera, CF (R&D Systems Cat#344-ER) (human) (UniProt P00533); assay: ECL (MSD multi-spot), Fab 232.5 nM; blank 460
[5] = biological target: rHuman IGF-1 sR (IGF-1 sR), CF (R&D Systems Cat#391-GR) (human) (UniProt P08069); assay: ECL (MSD multi-spot), Fab 232.5 nM; blank 460
[6] = biological target: rHuman P-Cadherin/Fc Chimera, CF (R&D Systems Cat#861-PC) (human) (UniProt P22223); assay: ECL (MSD multi-spot), Fab 232.5 nM; blank 460
[7] = biological target: rHuman EGF R/Fc Chimera, CF (R&D Systems Cat#344-ER) (human) (UniProt P00533); assay: ECL (MSD multi-spot), Fab 14.5 nM; blank 117
[8] = biological target: rHuman IGF-1 sR (IGF-1 sR), CF (R&D Systems Cat#391-GR) (human) (UniProt P08069); assay: ECL (MSD multi-spot), Fab 14.5 nM; blank 117
[9] = biological target: rHuman P-Cadherin/Fc Chimera, CF (R&D Systems Cat#861-PC) (human) (UniProt P22223); assay: ECL (MSD multi-spot), Fab 14.5 nM; blank 117
[10] = biological target: rHuman EGF R/Fc Chimera, CF (R&D Systems Cat#344-ER) (human) (UniProt P00533); assay: ECL (MSD multi-spot), Fab 930 nM; blank 1206
[11] = biological target: rHuman IGF-1 sR (IGF-1 sR), CF (R&D Systems Cat#391-GR) (human) (UniProt P08069); assay: ECL (MSD multi-spot), Fab 930 nM; blank 1206
[12] = biological target: rHuman P-Cadherin/Fc Chimera, CF (R&D Systems Cat#861-PC) (human) (UniProt P22223); assay: ECL (MSD multi-spot), Fab 930 nM; blank 1206
[13] = biological target: Recombinant Human DLL4 (R&D Systems Cat#1506-D4/CF) (human) (UniProt Q9NR61); assay: MSD ECL multi-spot plate; Fab 392.5 nM; blank spot 338
[14] = biological target: rHuman EGF R/Fc Chimera, CF (R&D Systems Cat#344-ER) (human) (UniProt P00533); assay: as above
[15] = biological target: rHuman Notch-1/Fc Chimera, CF (R&D Systems Cat#3647-TK) (human) (UniProt P46531); assay: as above
[16] = biological target: Recombinant Human DLL4 (R&D Systems Cat#1506-D4/CF) (human) (UniProt Q9NR61); assay: MSD ECL multi-spot plate; Fab 1570 nM; blank spot 866
[17] = biological target: rHuman EGF R/Fc Chimera, CF (R&D Systems Cat#344-ER) (human) (UniProt P00533); assay: as above
[18] = biological target: rHuman Notch-1/Fc Chimera, CF (R&D Systems Cat#3647-TK) (human) (UniProt P46531); assay: as above
[19] = biological target: Recombinant Human DLL4 (R&D Systems Cat#1506-D4/CF) (human) (UniProt Q9NR61); assay: MSD ECL multi-spot plate; Fab 98.1 nM; blank spot 210
[20] = biological target: rHuman EGF R/Fc Chimera, CF (R&D Systems Cat#344-ER) (human) (UniProt P00533); assay: as above
[21] = biological target: rHuman Notch-1/Fc Chimera, CF (R&D Systems Cat#3647-TK) (human) (UniProt P46531); assay: as above
[22] = biological target: Recombinant Human DLL4 (R&D Systems Cat#1506-D4/CF) (human) (UniProt Q9NR61); assay: MSD ECL multi-spot plate; Fab […]; blank spot 149
[23] = biological target: rHuman EGF R/Fc Chimera, CF (R&D Systems Cat#344-ER) (human) (UniProt P00533); assay: MSD ECL multi-spot plate; Fab […]; blank spot 149
[24] = biological target: rHuman Notch-1/Fc Chimera, CF (R&D Systems Cat#3647-TK) (human) (UniProt P46531); assay: MSD ECL multi-spot plate; Fab […]; blank spot 149
[25] = biological target: rHuman Erythropoietin R/Fc Chimera, CF (R&D Systems Cat#963-ER) (human) (UniProt P19235); assay: ECL (MSD multi-spot), antigen spotted on plate; Fab 40 nM; blank 1229
Chain of rHuman Erythropoietin R/Fc Chimera, CF (R&D Systems Cat#963-ER) (human) (P19235 25-250, change not shown): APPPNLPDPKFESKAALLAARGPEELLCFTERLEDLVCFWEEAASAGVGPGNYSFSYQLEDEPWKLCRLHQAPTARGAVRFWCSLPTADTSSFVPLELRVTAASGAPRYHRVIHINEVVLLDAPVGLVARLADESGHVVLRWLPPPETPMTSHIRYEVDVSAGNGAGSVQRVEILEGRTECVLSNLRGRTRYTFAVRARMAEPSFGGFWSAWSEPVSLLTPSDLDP

[26] = biological target: rHuman ErbB2/Fc Chimera, CF (R&D Systems Cat#1129-ER) (human) (UniProt P04626); assay: as above
[27] = biological target: rHuman CD44/Fc Chimera, CF (R&D Systems Cat#3660-CD) (human) (UniProt P16070); assay: as above
[28] = biological target: rHuman Notch-1/Fc Chimera, CF (R&D Systems Cat#3647-TK) (human) (UniProt P46531); assay: as above
[29] = biological target: rHuman P-Cadherin/Fc Chimera, CF (R&D Systems Cat#861-PC) (human) (UniProt P22223); assay: as above
[30] = biological target: rHuman Erythropoietin R/Fc Chimera, CF (R&D Systems Cat#963-ER) (human) (UniProt P19235); assay: ECL (MSD multi-spot), antigen spotted on plate; Fab 200 nM; blank 1659
[31] = biological target: rHuman ErbB2/Fc Chimera, CF (R&D Systems Cat#1129-ER) (human) (UniProt P04626); assay: as above
[32] = biological target: rHuman CD44/Fc Chimera, CF (R&D Systems Cat#3660-CD) (human) (UniProt P16070); assay: as above
[33] = biological target: rHuman Notch-1/Fc Chimera, CF (R&D Systems Cat#3647-TK) (human) (UniProt P46531); assay: as above
[34] = biological target: rHuman P-Cadherin/Fc Chimera, CF (R&D Systems Cat#861-PC) (human) (UniProt P22223); assay: as above
[35] = biological target: rHuman Erythropoietin R/Fc Chimera, CF (R&D Systems Cat#963-ER) (human) (UniProt P19235); assay: ECL (MSD multi-spot), antigen spotted on plate; Fab 1.6 nM; blank 648
[36] = biological target: rHuman ErbB2/Fc Chimera, CF (R&D Systems Cat#1129-ER) (human) (UniProt P04626); assay: as above
[37] = biological target: rHuman CD44/Fc Chimera, CF (R&D Systems Cat#3660-CD) (human) (UniProt P16070); assay: as above
[38] = biological target: rHuman Notch-1/Fc Chimera, CF (R&D Systems Cat#3647-TK) (human) (UniProt P46531); assay: as above
[39] = biological target: rHuman P-Cadherin/Fc Chimera, CF (R&D Systems Cat#861-PC) (human) (UniProt P22223); assay: as above
[40] = biological target: rHuman Erythropoietin R/Fc Chimera, CF (R&D Systems Cat#963-ER) (human) (UniProt P19235); assay: ECL (MSD multi-spot), antigen spotted on plate; Fab […]; blank 428
[41] = biological target: rHuman ErbB2/Fc Chimera, CF (R&D Systems Cat#1129-ER) (human) (UniProt P04626); assay: as above
[42] = biological target: rHuman CD44/Fc Chimera, CF (R&D Systems Cat#3660-CD) (human) (UniProt P16070); assay: as above
[43] = biological target: rHuman Notch-1/Fc Chimera, CF (R&D Systems Cat#3647-TK) (human) (UniProt P46531); assay: as above
[44] = biological target: rHuman P-Cadherin/Fc Chimera, CF (R&D Systems Cat#861-PC) (human) (UniProt P22223); assay: as above
[45] = biological target: rHuman Erythropoietin R/Fc Chimera, CF (R&D Systems Cat#963-ER) (human) (UniProt P19235); assay: ECL (MSD multi-spot), antigen spotted on plate; Fab 1000 nM; blank 2142
[46] = biological target: rHuman ErbB2/Fc Chimera, CF (R&D Systems Cat#1129-ER) (human) (UniProt P04626); assay: as above
[47] = biological target: rHuman CD44/Fc Chimera, CF (R&D Systems Cat#3660-CD) (human) (UniProt P16070); assay: as above
[48] = biological target: rHuman Notch-1/Fc Chimera, CF (R&D Systems Cat#3647-TK) (human) (UniProt P46531); assay: as above
[49] = biological target: rHuman P-Cadherin/Fc Chimera, CF (R&D Systems Cat#861-PC) (human) (UniProt P22223); assay: as above
[50] = biological target: rHuman Erythropoietin R/Fc Chimera, CF (R&D Systems Cat#963-ER) (human) (UniProt P19235); assay: ECL (MSD multi-spot), antigen spotted on plate; Fab 8 nM; blank 1188
[51] = biological target: rHuman ErbB2/Fc Chimera, CF (R&D Systems Cat#1129-ER) (human) (UniProt P04626); assay: as above
[52] = biological target: rHuman CD44/Fc Chimera, CF (R&D Systems Cat#3660-CD) (human) (UniProt P16070); assay: as above
[53] = biological target: rHuman Notch-1/Fc Chimera, CF (R&D Systems Cat#3647-TK) (human) (UniProt P46531); assay: as above
[54] = biological target: rHuman P-Cadherin/Fc Chimera, CF (R&D Systems Cat#861-PC) (human) (UniProt P22223); assay: as above

Fab VH1-46_IGHD6-13*01_IGHJ4*01 & O1_IGKJ1*01
ECL signal [1]: 444 ECL signal | ECL signal [2]: 343 ECL signal | ECL signal [3]: 478 ECL signal | ECL signal [4]: 803 ECL signal | ECL signal [5]: 569 ECL signal | ECL signal [6]: 655 ECL signal | ECL signal [7]: 357 ECL signal | ECL signal [8]: 234 ECL signal | ECL signal [9]: 277 ECL signal | ECL signal [10]: 3110 ECL signal | ECL signal [11]: 1920 ECL signal | ECL signal [12]: 2440 ECL signal

Fab VH1-46_IGHD3-10*01_IGHJ4*01 & O1_IGKJ1*01
ECL signal [13]: 735 ECL signal | ECL signal [14]: 744 ECL signal | ECL signal [15]: 749 ECL signal | ECL signal [16]: 2700 ECL signal | ECL signal [17]: 2480 ECL signal | ECL signal [18]: 1640 ECL signal | ECL signal [19]: 402 ECL signal | ECL signal [20]: 4390 ECL signal | ECL signal [21]: 313 ECL signal | ECL signal [22]: 339 ECL signal | ECL signal [23]: 317 ECL signal | ECL signal [24]: 434 ECL signal

Fab VH1-46_IGHD6-6*01_IGHJ1*01_S104A & L6_IGKJ1*01
ECL signal [25]: 3510 | ECL signal [26]: 2230 | ECL signal [27]: 2680 | ECL signal [28]: 3480 | ECL signal [29]: 2600 | ECL signal [30]: 4000 | ECL signal [31]: 4040 | ECL signal [32]: 3190 | ECL signal [33]: 5700 | ECL signal [34]: 3990 | ECL signal [35]: 1120 | ECL signal [36]: 1170 | ECL signal [37]: 1020 | ECL signal [38]: 1170 | ECL signal [39]: 1140 | ECL signal [40]: 739 | ECL signal [41]: 766 | ECL signal [42]: 684 | ECL signal [43]: 739 | ECL signal [44]: 649 | ECL signal [45]: 8290 | ECL signal [46]: 7420 | ECL signal [47]: 4730 | ECL signal [48]: 8060 | ECL signal [49]: 5630 | ECL signal [50]: 1980 | ECL signal [51]: 1900 | ECL signal [52]: 1490 | ECL signal [53]: 2200 | ECL signal [54]: 1920
